Measurements published in WO2021244601A1 (dated 2021).

Legend:
Assay in all cases: cell-based or functional assay
[1] = target: S protein on pseudovirus of p.1 strain (SARS-CoV-2 p.1 strain)
[2] = target: S protein on pseudovirus of B.1.351 strain (SARS-CoV-2 B.1.351 strain)
[3] = target: S protein on pseudovirus of B.1.1.7 strain (hCoV-19/England/QEUH-F56F0F/2021) (SARS-CoV-2 B.1.1.7 strain)

B1: CA304 (antibody, V domains shown)
VH: EVQLQQWGAGLLKPSETLSLTCAVYGGSFSGYYWSWIRQPPGKGLEWIGEVNHSGSTNYNPSLKSRVTISVDTSKNQLSLKLNSVTAADTAVYYCARGNTMVRGVIIPFEYWDKGTLVTVSS
VL: DIVMTQTPLSLPVTLGQPASISCRSSQSLVHSDGNTYLNWFQQRPGQSPRRLIYKVSNRDSGVPDRFSGSGAGTDFTLKISRVEAEDVGVYYCTQATQFPFTFGPGTKVDIKR
IC50, pseudovirus neutralisation (method as 3.15) [1]: 3.53 nM | IC50, pseudovirus neutralisation (method as 3.15) [2]: 12.2 nM | IC50, pseudovirus neutralisation (method as 3.15) [3]: 4.06 nM

B2: CA555 (antibody, V domains shown)
VH: B1 VH
VL: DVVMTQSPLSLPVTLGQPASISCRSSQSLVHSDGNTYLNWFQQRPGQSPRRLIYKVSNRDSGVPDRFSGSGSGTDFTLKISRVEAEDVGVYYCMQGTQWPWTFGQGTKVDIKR
IC50, pseudovirus neutralisation (method as 3.15) [1]: 1.58 nM | IC50, pseudovirus neutralisation (method as 3.15) [2]: 13.9 nM | IC50, pseudovirus neutralisation (method as 3.15) [3]: 3.17 nM
